Results: patent US20240116997A1

These substances were tested against His-tagged human IL-18BP (human) (UniProt O95998) (assay: AlphaLISA of free IL-18BP after incubation with IL-18 dilutions).
Chain of His-tagged human IL-18BP (human) (O95998 31-194): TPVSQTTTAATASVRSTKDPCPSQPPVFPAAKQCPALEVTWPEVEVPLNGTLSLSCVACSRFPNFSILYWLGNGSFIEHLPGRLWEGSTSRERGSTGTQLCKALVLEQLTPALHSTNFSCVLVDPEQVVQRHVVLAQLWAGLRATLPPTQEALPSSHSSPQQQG

Chain of IL-18 WT (native sequence, SEQ ID NO: 1) (Q14116 37-193): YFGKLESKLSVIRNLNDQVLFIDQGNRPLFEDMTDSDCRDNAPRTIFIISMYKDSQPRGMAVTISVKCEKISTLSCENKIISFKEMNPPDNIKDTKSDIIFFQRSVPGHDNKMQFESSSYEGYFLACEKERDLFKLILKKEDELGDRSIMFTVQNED

Kd [nM] | Substance
2.25 | C142 (Y1M, E6K, V11I, C38A, K53A, T63A, C76A, C127A) (from UniProt Q14116 38-193) (ligand)
8.86 | C143 (V11I, C38A, K53A, C76A, C127A) (from UniProt Q14116 37-193) (ligand)
0.66 | C144 (V11I, C38A, K53A, T63A, C76A, C127A) (from UniProt Q14116 37-193) (ligand)
9.74 | C145 (V11I, C38A, K53A, S55A, C76A, C127A) (from UniProt Q14116 37-193) (ligand)
373 | C146 (SEQ ID NO: 79; V11I, C38A, M51G, K53A, C76A, C127A) (from UniProt Q14116 37-193) (ligand)
25.8 | C147 (V11I, C38A, K53A, D54A, C76A, C127A) (from UniProt Q14116 37-193) (ligand)
57.2 | C148 (F2A, V11I, C38A, K53A, C76A, C127A) (from UniProt Q14116 37-193) (ligand)
0.64 | C149 (V11I, E31A, C38A, K53A, C76A, C127A) (from UniProt Q14116 37-193) (ligand)
1.24 | C150 (V11I, T34A, C38A, K53A, C76A, C127A) (from UniProt Q14116 37-193) (ligand)
2.88 | C151 (V11I, D35A, C38A, K53A, C76A, C127A) (from UniProt Q14116 37-193) (ligand)
1.12 | C152 (V11I, S36A, C38A, K53A, C76A, C127A) (from UniProt Q14116 37-193) (ligand)
4.55 | C153 (V11I, D37A, C38A, K53A, C76A, C127A) (from UniProt Q14116 37-193) (ligand)
2.12 | C154 (V11I, E31A, D37A, C38A, K53A, C76A, C127A) (from UniProt Q14116 37-193) (ligand)
0.74 | C155 (V11I, C38A, D40A, K53A, C76A, C127A) (from UniProt Q14116 37-193) (ligand)
18.5 | C156 (V11I, C38A, N41A, K53A, C76A, C127A) (from UniProt Q14116 37-193) (ligand)
13.7 | C157 (V11I, C38A, K53A, C76A, C127A, D132A) (from UniProt Q14116 37-193) (ligand)
1.24 | C158 (V11I, C38A, K53A, C76A, G108A, C127A) (from UniProt Q14116 37-193) (ligand)
0.55 | C159 (V11I, C38A, K53A, C76A, H109A, C127A) (from UniProt Q14116 37-193) (ligand)
0.71 | C160 (V11I, C38A, K53A, C76A, D110A, C127A) (from UniProt Q14116 37-193) (ligand)
0.06 | C161 (K8R, V11I, C38A, C76A, Q103E, C127A) (from UniProt Q14116 37-193) (ligand)
0.85 | C162 (K8E, V11I, C38A, C76A, Q103R, C127A) (from UniProt Q14116 37-193) (ligand)
0.05 | C163 (V11I, C38A, C76A, Q103K, C127A) (from UniProt Q14116 37-193) (ligand)
0.08 | C164 (V11I, C38A, S55H, C76A, C127A) (from UniProt Q14116 37-193) (ligand)
0.15 | C165 (V11I, C38A, S55R, C76A, C127A) (from UniProt Q14116 37-193) (ligand)
0.02 | C166 (V11I, C38A, S55T, C76A, C127A) (from UniProt Q14116 37-193) (ligand)

Kd [nM] | Substance
0.04 | C167 (V11I, C38A, C76A, S105I, C127A) (from UniProt Q14116 37-193) (ligand)
0.05 | C168 (V11I, C38A, C76A, S105K, C127A) (from UniProt Q14116 37-193) (ligand)
0.14 | C174 (K8L, E6K, V11I, C38A, K53A, T63A, C76A, C127A) (from UniProt Q14116 37-193) (ligand)
25.8 | C176 (E6K, V11I, C38A, I49M, K53A, T63A, C76A, C127A) (from UniProt Q14116 37-193) (ligand)
5.46 | C184 (E6R, V11I, C38A, K53A, T63A, C76A, C127A) (from UniProt Q14116 37-193) (ligand)
0.67 | IL-18 WT (native sequence, SEQ ID NO: 1) (from UniProt Q14116 37-193) (ligand)
969 | IL-18 polypeptide SEQ ID NO: 35 (Y01G, F02A, E06K, M51G, K53A, D54A, S55A, T63A) (from UniProt Q14116 37-193) (ligand)
514 | IL-18 polypeptide SEQ ID NO: 36 (K53A) (from UniProt Q14116 37-193) (ligand)
10.7 | IL-18 polypeptide SEQ ID NO: 37 (S55A) (from UniProt Q14116 37-193) (ligand)
0.13 | IL-18 polypeptide SEQ ID NO: 38 (E06K) (from UniProt Q14116 37-193) (ligand)
130 | IL-18 polypeptide SEQ ID NO: 39 (E06K, K53A) (from UniProt Q14116 37-193) (ligand)
12.3 | IL-18 polypeptide SEQ ID NO: 40 (E06K, S55A) (from UniProt Q14116 37-193) (ligand)
500 | IL-18 polypeptide SEQ ID NO: 41 (K53A, S55A) (from UniProt Q14116 37-193) (ligand)
822 | IL-18 polypeptide SEQ ID NO: 42 (E06K, K53A, S55A, T63A) (from UniProt Q14116 37-193) (ligand)
0.03 | IL-18 polypeptide SEQ ID NO: 47 (C38S, C68S, C76S, C127S) (from UniProt Q14116 37-193) (ligand)
0.21 | IL-18 polypeptide SEQ ID NO: 48 (C38S, C68S, C76S, C127S, K70C) (from UniProt Q14116 37-193) (ligand)
340 | IL-18 polypeptide SEQ ID NO: 50 (E06K, K53A, T63A) (from UniProt Q14116 37-193) (ligand)
2.59 | IL-18 polypeptide SEQ ID NO: 51 (T63A) (from UniProt Q14116 37-193) (ligand)
0.83 | IL-18 polypeptide SEQ ID NO: 52 (E06K, T63A) (from UniProt Q14116 37-193) (ligand)
198 | IL-18 polypeptide SEQ ID NO: 53 (K53A, T63A) (from UniProt Q14116 37-193) (ligand)
446 | IL-18 polypeptide SEQ ID NO: 54 (E06K, K53A, C38S, C68S, C76S, C127S, K70C) (from UniProt Q14116 37-193) (ligand)
913 | IL-18 polypeptide SEQ ID NO: 55 (K53A, T63A, C38S, C68S, C76S, C127S, K70C) (from UniProt Q14116 37-193) (ligand)
436 | IL-18 polypeptide SEQ ID NO: 56 (E6K, K53A, C38S, C76S, C127S) (from UniProt Q14116 37-193) (ligand)
50.2 | IL-18 polypeptide SEQ ID NO: 57 (E6K, C38S, K53A) (from UniProt Q14116 37-193) (ligand)
